# Changes are numbered by the printed parent chain.
# B1: 118N121_A5_2_OK/1-114 (VHH)
# VHH: EVQLVESGGGSVQPGGSLRLSCVASGSISSTNAMGWHRQVSGKERELVAIVTDGFTNYADFAKGRFTISRDNAKTTVYLQMNSLQPEDTARYYCRYSGIGTDNWGQGIEVTVSS
# notes: C-term myc-His6 tag
# B2: 118N121_A9_2_OK/1-114 (VHH)
# VHH: B1 VHH with T31V, S41P, E44Q
# notes: C-term myc-His6 tag
# B3: 21A41/1-120 (VHH)
# VHH: EVQLVESGGGLVQAGGSLRLSCAASGRIFSNYAWSWFRQAPGKERGFVAAINWSGGYTDYADSVKGRFTISRDNTKNTVYLQMNSLKPEDTAVYYCRPGWVTPSYEYGNWGQGTQVTVSS
# notes: C-term myc-His6 tag
# B4: 12E33/1-119 (VHH)
# VHH: EVQLVESGGGMVQAGGSLRLSCAASGLTLSNYGMGWFRQAPGKEREFVSSINWSGTHTYDADFVKGRFIISRDNAKNTVYLQINSLKPEDTAVYYCAAGGWGTGRYNYWGQGTQVTVSS
# notes: C-term myc-His6 tag
# B5: 118N121_B7_1_OK/1-119 (VHH)
# VHH: EMQLVESGGGLVQPGGSLRLSCAASGNIPPINAMAWYRQAPGNERELVAAVTSGGGTNYATSVKGRFIISRDDSKNTVDLQMNSLKPEDTAVYYCNLGGWTRTHPFDYWGQGTQVTVSS
# notes: C-term myc-His6 tag
# B6: 12E42/1-118 (VHH)
# VHH: EVQLVESGGGLVQPGGSLRLSCAHSGRAFSLRTMGWYRQAPGNQRELVALISAGDSTYYPDSVKGRFTVSRDNAKNTVYLQMNSLKPEDTAVYYCNAKAVTSRDHEYWGQGTQVTVSS
# notes: C-term myc-His6 tag
# B7: 11A52/1-120 (VHH)
# VHH: EVQLVESGGGLVQAGGSLRLSCAASGRALSNYAMRWFRQAPGKEREFVATINWSGSHTDYADSVKGRFTISRDNAENTVYLQMNSLTPEDTAVYYCASGWGATQAQSGFWGQGTQVTVSS
# notes: C-term myc-His6 tag
# B8: 14H111/1-120 (VHH)
# VHH: B7 VHH with S30I, N31S, Y32F, T50A, S56T, Q82L, T87I, S98T, S107H
# notes: C-term myc-His6 tag
# B9: 118N121_A7_1_OK/1-122 (VHH)
# VHH: EVQLVESGGGLVQPGGSLRLSCAASGNIKSIDVMGWHRQAPGKERELVSDISFGGNTNYANSVKGRFTISRDNAKNTVYLQMNSLKPEDTAVYYCYADILYKTDIYYRNDFWGQGTQVTVSS
# notes: C-term myc-His6 tag
# B10: 118N121_A11_1_OK/1-120 (VHH)
# VHH: EVQLVESGGGLVQPGGSLRLSCAASGFPFGMYGMRWVRQAPGKGPERVSSINSDGDTTYYADSVKGRFTISRDNDENMLYLQMNSLKPEDTAVYYCATGFSDRSFAVTHKGQGTQVTVSS
# notes: C-term myc-His6 tag
# B11: 13F81A/1-128 (VHH)
# VHH: EVQLVESGGGLVQAGGSLRLSCAASGRTFSRYAMGWFRQAPGKEREFVAAISWTGGSSYYGDSVKGRSTISRENAENTVYLQMNSLKPEDTAVYYCAANSDEFYSGTLKLQSRMVEYWGQGTQVTVSS
# notes: C-term myc-His6 tag
# B12: 118N121_B3_1_OK/1-123 (VHH)
# VHH: EVQLVESGGGLVQPGGSLRLSCAASGRTFSDLALGWFRRAPGKEREHVAAISSSGVTTIYADSVRGRFTISRDEAKNTVYLEMNSLKTDDTAVYYCAARLTMATPNQSQYYYWGQGTQVTVSS
# notes: C-term myc-His6 tag
# B13: 118N121_A10_1_OK/1-131 (VHH)
# VHH: EVQLVESGGGLVQAGGSLRLSCAASGFSFADYAIGWFRQAPGKEREGVSCIANSEGTKYYADSAQGRLPISSDNAKKTVYLQMDSLKPEDTAVYYCAALPYTICPVVVKKGAVYYGVDDYWGKGTQVTVSS
# notes: C-term myc-His6 tag
# B14: 12C91/1-121 (VHH)
# VHH: EVQLVESGGGLVQAGGSLRLSCVASGRTSSYYHMAWFRQAPGKEREFIAAINLSSGSTYYPDSVKGRFTISRGNAKNTVNLQMNSLKPEDTAVYYCAADNYRDSYLEYDYWGQGTQVTVSS
# notes: C-term myc-His6 tag
# B15: 13F21/1-123 (VHH)
# VHH: EVQLVESGGGLVQSGGSLRLSCVASGTIVSINATSWYRQAPGNQRELVATIIGDGRTHYADSVKDRFTISRDAAANLVYLQMNSLKPSDTAIYSCNANGIESYGWGNRHFNYWTVGTQVTVSS
# notes: C-term myc-His6 tag
# B16: 118N121_B7_4_OK/1-124 (VHH)
# VHH: EVQLVESGGGLEQAGGSLRLSCAASGLTFRSAAMGWFRQGPGKEREFVAAISRDGAATYYTDSVKGRFTISRDNAKNTVFLQMNSLKPEDTAIYYCAADFRLARLRVADDYDYWGQGTQVTVSS
# notes: C-term myc-His6 tag
# B17: 118N121_A2_2_OK/1-124 (VHH)
# VHH: KVQLVESGGGLVQAGGSLRLSCAASGRTFSNYSVGWFRQAPGKEREFVAALSKDGARTYYAASVKGRFTIYRDNAKNVVYLQMSVLNGEDTAVYYCAADHFTFMSNLPSEYDYWGQGTQVTVSS
# notes: C-term myc-His6 tag
# B18: 118N121_B8_1_OK/1-135 (VHH)
# VHH: EVQLVESGGGLVQDGGSLRLSCAASGQLANFASYAMGWFRQAPGKAREFVAAIRGSGGSTYIADPARSTYYADFVKGRFTISRDNAKNTVYLQMNSLKPEDTAVYYCACETFNSISNLPGEYDYWGQGTQVTVSS
# notes: C-term myc-His6 tag
# B19: 12D102/1-118 (VHH)
# VHH: EVQLVESGGGLVQPGGSLRLSCAASGSSLSFNAMGWSREAPGKRRELVARIISDDSTLYADSVKGRFTISRDYAKNTAYLQMNSLKPEDTAVYYCVADVRDSIWRSYWGQGTQVTVSS
# notes: C-term myc-His6 tag
# B20: 13G11/1-122 (VHH)
# VHH: EVQLVESGGGLVQAGGSLRLSCAASGRTFISNYAMGWFRQAPGKEREFVATINWSGSHSDYADSVKGRFTISRDNAKNTVYLQMNNLKSEDTAVYYCAPGWGTAPLSTSVYWGQGTQVTVSS
# notes: C-term myc-His6 tag
# B21: 118N121_A8_2_OK/1-124 (VHH)
# VHH: EVQLVESGGGLVQAGGSLTLSCVISGLTLESHAMGWFRQAPGEEREFVATIRWSGSATFYSDSVKGRFTISRDNAKNTVYLQMNSLKPEDTAVYYCAARKIYRSLSYYGDYDSWGQGTQVTVSS
# notes: C-term myc-His6 tag
# B22: 12C42/1-124 (VHH)
# VHH: EVQLVESGGGLVQAGGSLRLSCAASGRTFSRYAMHWFRQAPGSERDFVAGISWDGGSTFYANSVKGRFTISRDNAKNMVYLQMNSLKPEDTAVYYCAAAGSAGPPSIDRQYDYWGQGTQVTVSS
# notes: C-term myc-His6 tag
# B23: 14H101/1-128 (VHH)
# VHH: EVQLVESGGGLVQAGGSLRLSCAASGRTFISSPMGWFRQAPGKEREVVAATTRSGGLPYYSDSVKGRFTISRDNAKNTVDLQMSSLKPEDTAAYYCAADQKYGMSYSRLWLVSEYEYWGQGTQVTVSS
# notes: C-term myc-His6 tag
# B24: 118N121_A6_2_OK/1-123 (VHH)
# VHH: EVQLVESGGGLVQAGGSLRLSCVASGRTFSGYSVGWFRQSPGKEREFVGGINWSGRTYYVDSVKGRFTFSRDNAKNTVYLQMNSLKPEDTAIYLCAVDRFNTIANLPGEYDYWGQGTQVTVSS
# notes: C-term myc-His6 tag
# B25: 14H81/1-125 (VHH)
# VHH: EVQLVESGGGLVQAGGSLSLSCAASGRTFSNYRMAWFRQAPRKEREFVAAISRSGESTYFADSMKGRFTISRDNTESTGYLQMNNLKPEDTAVYYCAASWDHGDYVDGGFFYDYWGQGTQVTVSS
# notes: C-term myc-His6 tag
# B26: 12C71/1-125 (VHH)
# VHH: EVQLVESGGGLVQAGGSLRLSCTASGGTFGSYALGWFRQSPGKERESVAAIDWDGSRTQYADSVKGRFTISRENVKDTMYLQMNSLQAEDTGVYYCVRSRHSGNTLSFSLKYDYWGQGTQVTVSS
# notes: C-term myc-His6 tag
# B27: 11B102/1-118 (VHH)
# VHH: EVQLVESGGGLVQAGGSLRLSCAASGGIFSSHAISWFRQAPGKAREFVAAINWSGSHRDYADSAKGRFTISRDNAKKTAYLQMNSLRPEDTAVYYCVGGWKTDEYVKWGQGTQVTVSS
# notes: C-term myc-His6 tag
# B28: 14H121/1-113 (VHH)
# VHH: EVQLVESGGGLVQPGGSLRLSCAASGITFRFKAMGWFRQGPGKRRELVARIAGGSTNYADSVKGRFTISRDDAKNTVFLQMNSLKPEDTAVYYCNVDGPFGNWGQGTQVTVSS
# notes: C-term myc-His6 tag
# B29: 11B61/1-120 (VHH)
# VHH: EVQLVESGGGLVQAGGSLRLSCAASGRTSSGYGMGWFRQAPGKEREFVAAVGWYGSTYFADSVKGRFTIYRDNAQNTMYLQMNSLKPEDTAVYYCAASSSLATISQPSSWGQGTQVTVSS
# notes: C-term myc-His6 tag
# B30: 12C111/1-123 (VHH)
# VHH: EVQLVESGGGLVQAGGSLRLSCAVSGLTFSSYAMGWFRQAPGKVREFVATISRSGGRTSYADSVKGRFIVSRDNAKNTADLQMNDLKPEDTAVYYCGASKWYGGFGDTDIEYWGQGTQVTVSS
# notes: C-term myc-His6 tag
# B31: 22B55/1-123 (VHH)
# VHH: B30 VHH with S31T, D85E
# notes: C-term myc-His6 tag
# B32: 21A31/1-125 (VHH)
# VHH: EVQLVESGGGLVQAGGSLRLSCAASEPTFSSVAMGWFRQGPGKEREFAATITWSGDSTYVTDSVKGRFTISRDNARNTAYLQMDSLRPEDTAVYSCAARRWSGTLSLFDNEYYYWGQGTQVTVSS
# notes: C-term myc-His6 tag
# B33: 12E21/1-115 (VHH)
# VHH: EVQLVESGGGLVQPGGSLRLSCAASGSIDSIHVVGWYRKAPGKQREVVAYIGTAGATHYADSVKGRFTISRDNAENLVYLQMNNLKPEDTAVYYCSAGWGDSAYWGQGTQVTVSS
# notes: C-term myc-His6 tag
# B34: 118N121_B2_1_OK/1-130 (VHH)
# VHH: EVQLVESGGGLVQAGGSLRLSCAASGFSLDDRAIAWFRQAPGKAREGVSCITPHHGGIIFTRESVKGRFATSSDSAKNTVYLQMHSLKPEDTAVYYCATLRTDYSINWANCQRDSLYGYWGQGTQVTVSS
# notes: C-term myc-His6 tag
# Molecular target: T1, recombinant human ErbB2/Fc chimera (human, UniProt P04626 23-652)
# T1 construct: bought from R&D Systems; also called rhErbB2-Fc; rhErb2-Fc; Fc part of the bought chimera not given; not described
# Assay: ELISA, coated ErbB2/Fc
row,binding result,Binder
1,binds,B1
2,binds,B2
3,binds,B3
4,binds,B4
5,binds,B5
6,binds,B6
7,binds,B7
8,binds,B8
9,binds,B9
10,binds,B10
11,binds,B11
12,binds,B12
13,binds,B13
14,binds,B14
15,binds,B15
16,binds,B16
17,binds,B17

row,binding result,Binder
1,binds,B18
2,binds,B19
3,binds,B20
4,binds,B21
5,binds,B22
6,binds,B23
7,binds,B24
8,binds,B25
9,binds,B26
10,binds,B27
11,binds,B28
12,binds,B29
13,binds,B30
14,binds,B31
15,binds,B32
16,binds,B33
17,binds,B34

# Source: patent US20150232562A1 (Ablynx, published 2015)
